According to publication PMC10143249, “The Non-Canonical Iron-Responsive Element of IRE-tvcp12 Hairpin Structure at the 3′-UTR of Trichomonas vaginalis TvCP12 mRNA That Binds TvHSP70 and TvACTN-3 Can Regulate mRNA Stability and Amount of P”:

Legend:
[1] = target: T1, TvACTN-3r (alpha-actinin 3) (Trichomonas vaginalis, UniProt X5FVA1 1-1129); assay: Northwestern blot; REMSA: 20 uL, 0.2 ng 32P-RNA, 1 ug hIRP-1r or 50 ug T. vaginalis extract, 5 ug heparin, 10 min at 25 C, 6% native gel; buffer, salt and pH not given; Northwestern conditions not given; conditions: protein: recombinant; label: 32P (alpha-32P UTP); hairpin
T1 sequence: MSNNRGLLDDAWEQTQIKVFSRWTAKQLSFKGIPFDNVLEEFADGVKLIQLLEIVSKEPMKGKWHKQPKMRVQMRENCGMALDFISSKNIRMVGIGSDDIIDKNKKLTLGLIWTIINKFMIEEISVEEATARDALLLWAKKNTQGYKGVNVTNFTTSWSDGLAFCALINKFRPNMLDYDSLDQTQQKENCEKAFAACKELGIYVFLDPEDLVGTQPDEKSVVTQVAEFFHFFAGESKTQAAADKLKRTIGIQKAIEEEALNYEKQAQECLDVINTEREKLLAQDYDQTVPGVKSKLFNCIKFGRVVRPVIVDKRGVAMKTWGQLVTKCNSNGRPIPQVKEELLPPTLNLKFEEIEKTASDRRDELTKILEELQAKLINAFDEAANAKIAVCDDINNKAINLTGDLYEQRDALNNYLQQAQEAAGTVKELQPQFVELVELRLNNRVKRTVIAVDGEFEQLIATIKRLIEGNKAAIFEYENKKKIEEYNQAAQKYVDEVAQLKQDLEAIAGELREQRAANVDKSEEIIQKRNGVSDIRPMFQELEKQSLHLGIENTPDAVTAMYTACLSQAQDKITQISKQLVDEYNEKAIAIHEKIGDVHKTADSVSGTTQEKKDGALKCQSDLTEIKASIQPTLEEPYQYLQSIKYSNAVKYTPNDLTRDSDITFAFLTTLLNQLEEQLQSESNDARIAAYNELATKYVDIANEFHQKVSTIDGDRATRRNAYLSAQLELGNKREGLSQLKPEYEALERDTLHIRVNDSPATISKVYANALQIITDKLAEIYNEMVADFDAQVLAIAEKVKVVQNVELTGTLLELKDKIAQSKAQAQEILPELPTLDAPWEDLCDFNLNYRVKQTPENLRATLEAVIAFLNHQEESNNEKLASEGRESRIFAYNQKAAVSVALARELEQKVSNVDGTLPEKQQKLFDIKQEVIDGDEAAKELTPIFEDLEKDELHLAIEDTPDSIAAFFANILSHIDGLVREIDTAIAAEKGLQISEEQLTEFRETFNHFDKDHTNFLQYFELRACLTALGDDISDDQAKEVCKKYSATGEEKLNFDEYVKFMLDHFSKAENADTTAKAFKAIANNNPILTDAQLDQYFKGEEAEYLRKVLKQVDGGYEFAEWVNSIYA

[2] = target: T2, hIRP-1r (iron regulatory protein 1) (human, UniProt P21399 1-889); assay: EMSA; 5 ug heparin; REMSA: 20 uL, 0.2 ng 32P-RNA, 1 ug hIRP-1r or 50 ug T. vaginalis extract, 5 ug heparin, 10 min at 25 C, 6% native gel; buffer, salt and pH not given; Northwestern conditions not given; conditions: protein: recombinant; (pGEX plasmid); label: 32P (alpha-32P UTP); hairpin
T2 sequence: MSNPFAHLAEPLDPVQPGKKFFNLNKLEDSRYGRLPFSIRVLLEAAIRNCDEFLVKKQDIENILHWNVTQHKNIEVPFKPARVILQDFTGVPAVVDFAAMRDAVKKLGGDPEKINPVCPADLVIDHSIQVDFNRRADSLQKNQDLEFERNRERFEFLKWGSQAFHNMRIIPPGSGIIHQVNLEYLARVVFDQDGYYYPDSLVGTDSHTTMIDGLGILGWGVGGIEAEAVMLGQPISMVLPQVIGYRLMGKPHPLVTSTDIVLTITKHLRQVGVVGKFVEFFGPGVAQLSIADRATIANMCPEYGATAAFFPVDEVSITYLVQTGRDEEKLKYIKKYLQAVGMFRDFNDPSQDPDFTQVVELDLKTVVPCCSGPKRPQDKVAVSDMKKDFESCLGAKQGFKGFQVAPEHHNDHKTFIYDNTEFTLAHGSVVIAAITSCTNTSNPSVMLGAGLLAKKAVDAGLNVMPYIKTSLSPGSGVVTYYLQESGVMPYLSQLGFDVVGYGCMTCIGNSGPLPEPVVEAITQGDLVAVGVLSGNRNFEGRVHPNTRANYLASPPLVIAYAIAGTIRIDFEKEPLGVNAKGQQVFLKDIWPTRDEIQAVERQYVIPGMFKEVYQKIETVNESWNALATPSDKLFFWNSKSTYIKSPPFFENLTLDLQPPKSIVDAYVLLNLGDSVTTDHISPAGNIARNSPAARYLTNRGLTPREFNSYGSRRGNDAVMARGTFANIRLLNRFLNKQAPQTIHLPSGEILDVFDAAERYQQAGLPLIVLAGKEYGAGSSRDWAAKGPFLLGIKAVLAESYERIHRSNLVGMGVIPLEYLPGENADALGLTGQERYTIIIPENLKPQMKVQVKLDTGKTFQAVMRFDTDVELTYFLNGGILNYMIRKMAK

GGGACGUAUUUAAUUGAUUGCG (structured_RNA) [IRE-tvcp12 (wild type)]: binds [1]; binds [2].
